# Reference: IntAct's records for PubMed 17435768
# B1: Heterogeneous nuclear ribonucleoprotein M (Homo sapiens), P52272 (parent)
# chain: MAAGVEAAAEVAATEIKMEEESGAPGVPSGNGAPGPKGEGERPAQNEKRKEKNIKRGGNRFEPYANPTKRYRAFITNIPFDVKWQSLKDLVKEKVGEVTYVELLMDAEGKSRGCAVVEFKMEESMKKAAEVLNKHSLSGRPLKVKEDPDGEHARRAMQKVMATTGGMGMGPGGPGMITIPPSILNNPNIPNEIIHALQAGRLGSTVFVANLDYKVGWKKLKEVFSMAGVVVRADILEDKDGKSRGIGTVTFEQSIEAVQAISMFNGQLLFDRPMHVKMDERALPKGDFFPPERPQQLPHGLGGIGMGLGPGGQPIDANHLNKGIGMGNIGPAGMGMEGIGFGINKMGGMEGPFGGGMENMGRFGSGMNMGRINEILSNALKRGEIIAKQGGGGGGGSVPGIERMGPGIDRLGGAGMERMGAGLGHGMDRVGSEIERMGLVMDRMGSVERMGSGIERMGPLGLDHMASSIERMGQTMERIGSGVERMGAGMGFGLERMAAPIDRVGQTIERMGSGVERMGPAIERMGLSMERMVPAGMGAGLERMGPVMDRMATGLERMGANNLERMGLERMGANSLERMGLERMGANSLERMGPAMGPALGAGIERMGLAMGGGGGASFDRAIEMERGNFGGSFAGSFGGAGGHAPGVARKACQIFVRNLPFDFTWKMLKDKFNECGHVLYADIKMENGKSKGCGVVKFESPEVAERACRMMNGMKLSGREIDVRIDRNA
# B2: Heterogeneous nuclear ribonucleoprotein A1 (Homo sapiens), P09651-2 (parent)
# chain: MSKSESPKEPEQLRKLFIGGLSFETTDESLRSHFEQWGTLTDCVVMRDPNTKRSRGFGFVTYATVEEVDAAMNARPHKVDGRVVEPKRAVSREDSQRPGAHLTVKKIFVGGIKEDTEEHHLRDYFEQYGKIEVIEIMTDRGSGKKRGFAFVTFDDHDSVDKIVIQKYHTVNGHNCEVRKALSKQEMASASSSQRGRSGSGNFGGGRGGGFGGNDNFGRGGNFSGRGGFGGSRGGGGYGGSGDGYNGFGNDGSNFGGGGSYNDFGNYNNQSSNFGPMKGGNFGGRSSGPYGGGGQYFAKPRNQGGYGGSSSSSSYGSGRRF
# Variants of: B1
# Conditions: with tnpo1_human TNPO1, Q92973
# tnpo1_human TNPO1, Q92973, sequence (Q92973 whole entry): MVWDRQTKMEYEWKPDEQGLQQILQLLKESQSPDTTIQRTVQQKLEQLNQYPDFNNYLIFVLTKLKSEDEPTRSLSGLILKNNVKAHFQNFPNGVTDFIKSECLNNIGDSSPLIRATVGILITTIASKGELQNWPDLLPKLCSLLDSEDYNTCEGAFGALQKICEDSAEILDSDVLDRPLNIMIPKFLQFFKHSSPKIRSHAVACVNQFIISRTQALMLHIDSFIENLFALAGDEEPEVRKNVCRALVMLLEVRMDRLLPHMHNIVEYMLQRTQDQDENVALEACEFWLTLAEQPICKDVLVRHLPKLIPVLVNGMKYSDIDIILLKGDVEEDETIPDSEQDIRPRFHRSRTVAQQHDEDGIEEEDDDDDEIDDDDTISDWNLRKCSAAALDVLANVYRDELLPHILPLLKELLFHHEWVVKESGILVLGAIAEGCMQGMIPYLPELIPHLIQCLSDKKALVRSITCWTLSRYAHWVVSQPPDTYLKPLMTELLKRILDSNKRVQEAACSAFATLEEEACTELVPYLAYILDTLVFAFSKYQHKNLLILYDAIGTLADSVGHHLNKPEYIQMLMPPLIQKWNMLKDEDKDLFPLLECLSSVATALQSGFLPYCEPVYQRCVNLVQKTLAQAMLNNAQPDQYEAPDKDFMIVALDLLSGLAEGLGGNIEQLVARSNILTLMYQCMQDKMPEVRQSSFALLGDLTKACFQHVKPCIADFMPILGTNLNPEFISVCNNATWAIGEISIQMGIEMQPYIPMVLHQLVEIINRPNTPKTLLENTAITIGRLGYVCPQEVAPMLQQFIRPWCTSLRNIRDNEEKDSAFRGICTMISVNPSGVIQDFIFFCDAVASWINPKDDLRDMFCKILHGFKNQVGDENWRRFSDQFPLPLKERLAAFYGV
row,Variant,effect of a mutation on the interaction
1,P63A;Y64A,decreasing interaction strength

# Variants of: B2
# Conditions: with tnpo1_human TNPO1, Q92973
row,Variant,effect of a mutation on the interaction
1,G274A,decreasing interaction
